Results: the Human Domainome abundance scans (Beltran et al. 2025)

B1: KAT8 regulatory NSL complex subunit 2, residues 28 to 91; numbered along this chain, Q9H9L4 (parent)
chain: CAFTHRPCSHPRLEGQEFCIKHILEDKNAPFKQCSYISTKNGKRCPNAAPKPEKKDGVSFCAEH

Variants of: B1
Assay: abundance fitness (aPCA) (normalised: wild type 0, dead -1); higher = more abundant; growth selection in yeast, the domain comes from the species named
Settings: Homo sapiens

Abundance fitness, by site and new letter:
K32: P -0.211 | E -0.026 | Y -0.194 | R -0.041 | A -0.075 | T -0.177 | D -0.136 | F -0.305 | I -0.135 | C -0.146 | N -0.073 | S -0.093 | H -0.185
K40: Y -0.052 | W -0.401 | G -0.196 | D -0.14 | S -0.299 | F -0.037 | L 0.184
Q33: C -0.255 | V -0.03 | L 0.004 | M -0.062 | G -0.142 | K -0.05 | D -0.238 | E -0.049 | T 0.017 | N -0.11 | I -0.124 | R -0.081 | A 0.011 | Y -0.071 | F -0.217 | P -0.036 | S -0.182
N28: A -0.118 | C -0.142 | W -0.312 | K -0.1 | M -0.107 | T -0.031 | E -0.07 | H -0.028 | G -0.11 | S -0.006 | F -0.083 | L -0.093 | V -0.121 | R -0.049 | P -0.215 | D -0.252 | Q -0.069
R44: D -0.102 | N -0.014 | T -0.029 | C -0.026 | M -0.04 | H -0.051 | F -0.144 | K -0.071 | P -0.067 | E -0.139 | S -0.038 | Q 0.005 | G -0.027 | W -0.112
C45: M -0.438 | I -0.594 | A -0.459 | F -0.609 | P -0.561 | V -0.465 | N -0.398 | S -0.378 | R -0.635 | W -0.79 | G -0.427 | H -0.581 | E -0.193 | L -0.441 | Y -0.671
G42: Y -0.094 | T -0.055 | P -0.1 | V -0.108 | L -0.125 | R -0.038 | I -0.206 | Q -0.008 | D -0.092 | A -0.053 | S -0.063 | E -0.005 | W -0.246 | H -0.141 | F -0.22 | N -0.117 | K 0.051 | M -0.139 | C -0.105
I37: Y -0.137 | C -0.032 | S -0.061 | R -0.045 | T 0.038 | P -0.142 | E -0.042 | G -0.022 | K -0.107 | D -0.302 | M 0.046 | Q -0.031 | H 0.039 | N -0.042 | L -0.044 | W -0.127 | A -0.177
S35: D -0.057 | T -0.104 | A -0.04 | P -0.177 | Q -0.103 | K -0.046 | I -0.177 | W -0.169 | R -0.105 | V -0.031 | E -0.014 | C 0.003 | H -0.333 | N -0.117 | Y -0.113 | L -0.14 | F -0.012 | G -0.047
P46: A -0.119
N41: E -0.005 | Q -0.098 | M -0.079 | P -0.13 | C -0.161 | G -0.03 | A -0.058 | K 0.019 | W -0.171 | L -0.09 | T -0.195 | R -0.06 | S -0.052 | H -0.115 | Y -0.365 | V -0.031 | F -0.086
F31: T -0.21 | H -0.261 | G -0.1 | P -0.183 | I -0.391 | W -0.116 | K -0.195 | R -0.203 | V -0.248 | A -0.197 | M -0.175 | Y -0.195 | L -0.188 | N -0.323 | S -0.179
P30: S -0.136 | H -0.253 | T -0.184 | M -0.261 | L -0.188 | C -0.275 | K -0.156 | R -0.198 | V -0.256 | I -0.162 | W -0.514 | A -0.205 | Y -0.335 | G -0.074 | D -0.155 | N -0.178 | Q -0.279 | E -0.251 | F -0.368
K43: H -0.063 | S -0.042 | T -0.028 | I -0.181 | D -0.04 | M -0.203 | C -0.141 | Y -0.052 | W -0.141 | A -0.117 | P -0.072 | Q -0.057 | F -0.172 | E -0.044 | R -0.055 | G -0.144 | L -0.101 | V -0.074 | N 0.027
Y36: I -0.131 | Q -0.078 | E -0.183 | V -0.129 | C -0.173 | K -0.015 | F -0.015 | N -0.157 | W -0.122 | D -0.162 | L -0.156 | A -0.096 | G -0.085 | T -0.054 | P -0.298 | M -0.216 | R -0.055 | H -0.016 | S -0.06
T39: M -0.165 | I -0.123 | R -0.105 | K -0.087 | F -0.105 | Y -0.237 | E 0.003 | N -0.049 | S -0.112 | A -0.13 | D -0.101 | W -0.57 | H -0.091 | C -0.205 | L -0.209 | V -0.097 | P -0.207
S38: F -0.038 | E -0.059 | P -0.028 | W -0.076 | C -0.026 | Y -0.065 | V -0.024 | R -0.06 | N -0.122 | G -0.048 | Q -0.08 | I -0.348 | H -0.111 | K -0.084 | L -0.076 | M -0.159 | A -0.002 | T -0.104
D26: S -0.117 | W -0.347 | M -0.195 | Y -0.223 | T -0.069 | C -0.097 | Q -0.18 | G -0.197 | N -0.081 | A -0.084 | R -0.175 | E -0.157 | V -0.16 | I -0.072 | F -0.245 | K -0.177
C34: Y -0.604 | M -0.542 | F -0.664 | N -0.33 | P -0.346 | V -0.541 | G -0.339 | H -0.453 | E -0.185 | S -0.321 | T -0.71 | I -0.56 | W -0.674 | Q -0.41 | A -0.446 | R -0.578 | K -0.484
A29: T -0.133 | Q -0.278 | M -0.204 | V -0.196 | C -0.151 | H -0.208 | R -0.167 | L -0.217 | W -0.422 | K -0.186 | D -0.225 | P -0.225 | G -0.128 | N -0.22 | Y -0.287 | I -0.358 | S -0.048 | E -0.308
K27: L -0.158 | R -0.12 | P -0.091 | W -0.215 | G -0.191 | Q -0.149 | H -0.094 | Y -0.202 | S -0.093 | C -0.194 | D -0.172 | I -0.091 | N -0.044 | F -0.3 | A -0.019 | E -0.079 | V -0.104 | M -0.269
E25: V -0.069 | Y -0.05 | W -0.131
